Experimental data: PMC5668897 (Biochemistry and Biophysics Reports, 2015)

Molecular target: the molecule itself
Assay: SEC

B1: regulatory subunit of Thermotoga maritima acetohydroxyacid synthase (TmAHAS), TM0549 (natural protein)
chain: MTDQIREHLVSMLVHNKPGVMRKVANLFARRGFNISSITVGESETPGLSRLVIMVKGDDKTIEQIEKQAYKLVEVVKVTPIDPLPENRVEREMALIKVRFDEDKQEIFQLVEIFRGKIIDVSREGAIIEITGARSKVEAFINLLPQKQVEEIARTGIVAMNRWNVKEGEGF
stoichiometry N: 2
